The record followed here is US20030135878.

This data set has as its target wheat thioredoxin h (WTRXh), 13.5-kDa protein encoded by the 384-bp wtrxh fragment (UniProt O64394).

Chain of wheat thioredoxin h (WTRXh), 13.5-kDa protein encoded by the 384-bp wtrxh fragment (O64394 whole entry, the tested form may be a part): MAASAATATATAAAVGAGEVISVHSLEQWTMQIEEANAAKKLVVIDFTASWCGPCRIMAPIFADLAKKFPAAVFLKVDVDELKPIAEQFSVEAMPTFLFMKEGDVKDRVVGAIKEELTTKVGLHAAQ

“Arabidopsis thaliana NTR (NADP-thioredoxin reductase)” gave a Relative reduction of albumin-fraction proteins (mBBr fluorescence/protein), Homozygous/Null Segregant, +NADPH/NTR (fold (Homozygous/Null Segregant)) of 3.91.

With barley NTR (NADP-thioredoxin reductase), the “reduction of DTNB [5,5'-dithiobis(2-nitrobenzoic acid)] via NTR and thioredoxin” value is recorded as “confirmed the ability of barley NTR to reduce wheat thioredoxin h (data not shown)”.
